{
  "source": "patent US7799326B2",
  "about": "“Methods and compositions for cathespin k complex-mediated disorders” (Mount Sinai School of Medicine, priority 2001, dated 2010)",
  "key": {"[1]": {"system": "gelatin", "assay": "Gelatin hydrolysis by cathepsin K mutant proteins", "format": "biochemical"}, "[2]": {"assay": "Mobility shift assay of complex formation of proteases with CSA", "format": "binding", "method": "The gel was run at about 25° C. 55 V, 250 mA for 30 min, then dried and developed the radio signal on a film."}, "[3]": {"system": "type I collagen", "assay": "Type I collagen hydrolysis by cathepsin K mutant proteins", "format": "biochemical, bovine", "conditions": "800 nM protein, 0.4 mg/ml collagen, 0.15% CSA, 8 h at 28 C, pH 5.5", "method": "(§1) The mutant proteins were generated to characterize cluster 1:K77A, R79A (mutant 1), K103, K106A, R108A, R111A, (mutant 2), K77A, R79A, K103, K106A, R108A,R111A (mutant 3), K77A, R79A, K103, K106A, R108A,R111A, K122A, R127A (mutant 4). Mutant proteins were expressed in Pichia pastoris and the activity of the protein was determined towards two synthetic peptide substrates, gelatin and type I native collagen. […] The cleavage products were separated by SDS polyacrylamide electrophoresis using 4-20% Tris Glycine gels."}, "[4]": {"assay": "Activity of cathepsin K mutant proteins towards synthetic peptide substrates", "format": "biochemical", "conditions": "Example 17 mutants", "method": "as §1"}},
  "note": "Entries after “also recorded” stand apart in the source; their conditions may differ.",
  "data": [
    {"molecule": "Y212C: pycnodysostosis-causing cathepsin K mutant (protein, UniProt P43235 115-329, looked up, variant Y212C) Cathepsin K: APDSVDYRKKGYVTPVKNQGQCGSCWAFSSVGALEGQLKKKTGKLLNLSPQNLVDCVSENDGCGGGYMTNAFQYVQKNRGIDSEDAYPYVGQEESCMCNPTGKAAKCRGYREIPEGNEKALKRAVARVGPVSVAIDASLTSFQFYSKGVYYDESCNSDNLNHAVLAVGYGIQKGNKHWIIKNSWGENWGNKGYILMARNKNNACGIANLASFPKM", "values": [
      {"measurement": "gelatin hydrolysis by the protease", "setting": "[1]; 1 nM Y212C, 0.15% CSA, 37 C for 8 h", "result": "exhibited gelatinase activity"},
      {"measurement": "complex formation with CSA", "setting": "[2]; 0.2 μg/ml and 1000 μg/ml CSA", "result": "unable to form a complex with CSA"}
    ]},
    {"molecule": "mutant 5: cathepsin K mutant K9E (protein, UniProt P43235 115-329, looked up, variant K9E) Cathepsin K: APDSVDYREKGYVTPVKNQGQCGSCWAFSSVGALEGQLKKKTGKLLNLSPQNLVDCVSENDGCGGGYMTNAFQYVQKNRGIDSEDAYPYVGQEESCMYNPTGKAAKCRGYREIPEGNEKALKRAVARVGPVSVAIDASLTSFQFYSKGVYYDESCNSDNLNHAVLAVGYGIQKGNKHWIIKNSWGENWGNKGYILMARNKNNACGIANLASFPKM", "values": [
      {"measurement": "degradation of type I collagen by the protease", "setting": "[3]", "result": "strongly inhibited; also recorded: significantly reduced"},
      {"measurement": "activity towards gelatin compared with wild type", "setting": "[1]; Example 17 mutants", "result": "fully active"},
      {"measurement": "activity towards synthetic peptide substrates compared with wild type", "setting": "[4]", "result": "fully active"},
      {"measurement": "complex formation with CSA", "setting": "[2]; Example 17 mutants, gel-mobility assay", "result": "still revealed complex formation"}
    ]},
    {"molecule": "mutant 1: cathepsin K mutant K77A, R79A (protein, UniProt P43235 115-329, looked up, variant K77A R79A) Cathepsin K: APDSVDYRKKGYVTPVKNQGQCGSCWAFSSVGALEGQLKKKTGKLLNLSPQNLVDCVSENDGCGGGYMTNAFQYVQANAGIDSEDAYPYVGQEESCMYNPTGKAAKCRGYREIPEGNEKALKRAVARVGPVSVAIDASLTSFQFYSKGVYYDESCNSDNLNHAVLAVGYGIQKGNKHWIIKNSWGENWGNKGYILMARNKNNACGIANLASFPKM", "values": [
      {"measurement": "degradation of type I collagen by the protease", "setting": "[3]", "result": "complete degradation of type I collagen"},
      {"measurement": "degradation of type I collagen by the protease", "setting": "[3]; listed as Mutant 1", "result": "did not reveal an inhibition"}
    ]},
    {"molecule": "Cat S: human cathepsin S, closely related cysteine protease (protein, UniProt P25774 115-331, looked up) Cathepsin S: LPDSVDWREKGCVTEVKYQGSCGACWAFSAVGALEAQLKLKTGKLVSLSAQNLVDCSTEKYGNKGCNGGFMTTAFQYIIDNKGIDSDASYPYKAMDQKCQYDSKYRAATCSKYTELPYGREDVLKEAVANKGPVSVGVDARHPSFFLYRSGVYYEPSCTQNVNHGVLVVGYGDLNGKEYWLVKNSWGHNFGEEGYIRMARNKGNHCGIASFPSYPEI", "values": [
      {"measurement": "complex formation with CSA", "setting": "[2]; 50 ng [125I]DCG-04 labeled protease, 0.1% CSA", "result": "Only cathepsin K formed a stable complex"}
    ]}
  ]
}
